Values quoted from earlier work, collected in publication PMC4339652.
Values joined by “and” are separate entries in the source; they are usually repeats but may differ in a detail not shown here. Identical values can stand only once. Like-named read-outs stand apart in the source and are kept apart here. Values belong to the substance of their own block, whether it stands above or below them.

Columns and labels:
[1] = target: TolA TolAIII (Escherichia coli) (UniProt P19934); test: SPR
[2] = target: TolA TolAII-III (Escherichia coli) (UniProt P19934); test: SPR
Chain of TolA TolAII-III (Escherichia coli) (P19934 48-421): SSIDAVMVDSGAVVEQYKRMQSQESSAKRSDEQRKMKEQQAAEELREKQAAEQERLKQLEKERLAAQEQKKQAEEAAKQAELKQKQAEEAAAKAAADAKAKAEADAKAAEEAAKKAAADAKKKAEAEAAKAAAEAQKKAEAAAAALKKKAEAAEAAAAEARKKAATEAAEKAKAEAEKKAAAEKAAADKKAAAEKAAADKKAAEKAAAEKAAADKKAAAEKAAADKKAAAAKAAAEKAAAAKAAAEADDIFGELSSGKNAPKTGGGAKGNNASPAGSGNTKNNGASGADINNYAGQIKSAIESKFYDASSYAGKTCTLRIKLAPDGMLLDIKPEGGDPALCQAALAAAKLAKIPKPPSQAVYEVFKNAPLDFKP

[3] = target: TolA TolAIII (Escherichia coli) (UniProt P19934); test: stopped flow fluorescence
[4] = target: TolA TolAIII (Escherichia coli) (UniProt P19934); test: ITC
TolB (Escherichia coli) [5] = target: TolB (Escherichia coli) (UniProt P0A855); test: ITC
Chain of TolB (Escherichia coli) (P0A855 22-430): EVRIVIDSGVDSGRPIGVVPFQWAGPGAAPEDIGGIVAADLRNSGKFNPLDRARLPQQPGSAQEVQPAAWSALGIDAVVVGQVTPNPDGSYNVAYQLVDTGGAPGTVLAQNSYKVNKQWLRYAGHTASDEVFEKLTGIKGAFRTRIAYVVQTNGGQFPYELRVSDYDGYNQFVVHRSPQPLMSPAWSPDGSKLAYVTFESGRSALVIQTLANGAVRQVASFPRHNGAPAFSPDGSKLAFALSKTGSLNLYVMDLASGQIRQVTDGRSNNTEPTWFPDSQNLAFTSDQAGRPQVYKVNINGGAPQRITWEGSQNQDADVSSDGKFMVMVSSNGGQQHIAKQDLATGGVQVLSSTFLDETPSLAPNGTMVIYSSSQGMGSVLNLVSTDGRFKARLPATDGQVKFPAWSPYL

[6] = target: Colicin N 40-90 (Escherichia coli) (UniProt P08083); test: SPR
Chain of Colicin N 40-90 (Escherichia coli) (P08083 40-90): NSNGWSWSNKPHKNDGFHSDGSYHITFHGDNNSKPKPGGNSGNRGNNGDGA

[7] = target: Colicin N T domain (Escherichia coli) (UniProt P08083)
Chain of Colicin N T domain (Escherichia coli) (P08083 1-90): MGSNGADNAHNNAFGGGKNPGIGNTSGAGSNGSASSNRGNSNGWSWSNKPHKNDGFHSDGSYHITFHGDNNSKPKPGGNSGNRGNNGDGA

[8] = target: G3p N1 (Filamentous phage) (UniProt O80297)
Chain of G3p N1 (Filamentous phage) (O80297 18-79): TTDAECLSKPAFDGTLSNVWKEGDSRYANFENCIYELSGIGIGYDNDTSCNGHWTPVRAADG

TolB (Escherichia coli) [9] = target: TolB (Escherichia coli) (UniProt P0A855); test: ITC; remark: listed apart in the source

Chain of TolA TolAII-III (P19934 48-421): as the sequence (P19934 48-421) above
Chain of Colicin N T domain (1-90) (P08083 1-90): as the sequence (P08083 1-90) above
Chain of Colicin N 40-90 (P08083 40-90): as the sequence (P08083 40-90) above
Chain of TolA TolAIII (Escherichia coli) (P19934 311-421): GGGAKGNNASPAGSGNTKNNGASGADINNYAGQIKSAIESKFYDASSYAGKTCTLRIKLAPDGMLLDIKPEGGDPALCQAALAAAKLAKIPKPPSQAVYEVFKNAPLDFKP
Chain of TolA TolAIII (P19934 311-421): as above
Chain of TolA TolA (P19934 whole entry): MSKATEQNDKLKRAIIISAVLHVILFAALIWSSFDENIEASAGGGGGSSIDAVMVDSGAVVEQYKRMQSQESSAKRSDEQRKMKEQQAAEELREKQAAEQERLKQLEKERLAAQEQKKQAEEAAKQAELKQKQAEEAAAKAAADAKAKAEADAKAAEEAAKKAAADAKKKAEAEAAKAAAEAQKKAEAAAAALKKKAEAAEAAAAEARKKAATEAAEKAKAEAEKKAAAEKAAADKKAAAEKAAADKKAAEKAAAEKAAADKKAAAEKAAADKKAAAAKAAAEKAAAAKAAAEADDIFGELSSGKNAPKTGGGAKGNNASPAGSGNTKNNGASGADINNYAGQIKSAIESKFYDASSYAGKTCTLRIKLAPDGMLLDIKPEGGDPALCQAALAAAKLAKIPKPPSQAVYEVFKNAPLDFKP
Chain of G3p N1 domain (P69168 16-88): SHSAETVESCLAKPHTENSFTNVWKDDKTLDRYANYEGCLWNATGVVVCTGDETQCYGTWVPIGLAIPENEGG

Substance: Colicin N 40-90 (from UniProt P08083)
Kd [1]: 850 nM and 190 nM
Kd [2]: 940 nM

Substance: Colicin N T domain (1-90) (from UniProt P08083)
Kd [3]: 2300 nM
Kd [4]: 1000 nM
Kd [1]: 1250 nM

Substance: G3p N1 domain (from UniProt P69168)
Kd [1]: 1000 nM

Kd (TolB (Escherichia coli) [5]): 40000 nM
Substance: TolA TolA (from UniProt P19934)

Substance: TolA TolAII-III (from UniProt P19934)
Kd [6]: 190 nM and 940 nM and 850 nM

Substance: TolA TolAIII (from UniProt P19934)
Kd [7]: 1000 nM
Kd (TolB (Escherichia coli) [5]): 13000 nM
Kd [8]: 1000 nM
Kd (TolB (Escherichia coli) [9]): 40000 nM
